Reference: patent US7374923B2, “Polypeptide” (Astellas Pharma Inc., priority 2002, dated 2008)

B1: MD8S protein: extracellular region of human MD8 protein, 1st to 646th amino acids of SEQ ID NO: 2, with C-terminal FLAG tag (protein, listed as Homo sapiens)
chain: MRGLGLWLLGAMMLPAIAPSRPWALMEQYEVVLPRRLPGPRVRRALPSHLGLHPERVSYVLGATGHNFTLHLRKNRDLLGSGYTETYTAANGSEVTEQPRGQDHCFYQGHVEGYPDSAASLSTCAGLRGFFQVGSDLHLIEPLDEGGEGGRHAVYQAEHLLQTAGTCGVSDDSLGSLLGPRTAAVFRPRPGDSLPSRETRYVELYVVVDNAEFQMLGSEAAVRHRVLEVVNHVDKLYQKLNFRVVLVGLEIWNSQDRFHVSPDPSVTLENLLTWQARQRTRRHLHDNVQLITGVDFTGTTVGFARVSAMCSHSSGAVNQDHSKNPVGVACTMAHEMGHNLGMDHDENVQGCRCQERFEAGRCIMAGSIGSSFPRMFSDCSQAYLESFLERPQSVCLANAPDLSHLVGGPVCGNLFVERGEQCDCGPPEDCRNRCCNSTTCQLAEGAQCAHGTCCQECKVKPAGELCRPKKDMCDLEEFCDGRHPECPEDAFQENGTPCSGGYCYNGACPTLAQQCQAFWGPGGQAAEESCFSYDILPGCKASRYRADMCGVLQCKGGQQPLGRAICIVDVCHALTTEDGTAYEPVPEGTRCGPEKVCWKGRCQDLHVYRSSNCSAQCHNHGVCNHKQECHCHAGWAPPHCAKLLTE
modifications: C-terminal FLAG tag

Key:
MD8S protein = experiment: Inhibition of digestion of recombinant IGFBP-5 by MD8S protein (western blotting); format: biochemical, human
Protocol: The MD8S enzyme solution obtained in Example 8(1) was reacted with recombinant IGFBP-5 obtained in Example 9(1) in a 50 mmol/L tris-HCl (pH7.4) buffer containing 50 mmol/L NaCl, 2 mmol/L CaCl2, 20 μg/mL bovine serum albumin (BSA), and 0.1% CHAPS at 37° C. overnight. In this connection, concentrations of the MD8S protein and recombinant IGFBP-5 in the reaction solution were 1.5 μg/mL and 10 μg/mL, respectively.
Using an aliquot of the reaction solution, SDS-PAGE was carried out, and then a transfer to a PVDF membrane and blocking was carried out. Recombinant IGFBP-5 was detected by reacting a biotinylated M2 antibody (Sigma) as the first antibody, followed by a horseradish peroxidase-labeled streptavidin (Amersham) as the second antibody, and by using an ECL Western Blotting Detecting System (Amersham Pharmacia).
Substances inhibiting the activity of digesting IGFBP-5 by the MD8S protein can be screened by the reaction system utilizing western blotting performed in Example 9(2). In this Example, the procedure described in Example 9(2) was repeated, except that various compounds having a hydroxamic acid scaffold as a compound to be tested were added to the reaction system containing the MD8S enzyme solution and recombinant IGFBP-5, to measure an inhibitory intensity of the activity of digesting IGFBP-5. […]

IGFBP-3 = experiment: Activity of digesting IGFBP-3 by MD8S protein; format: biochemical; conditions: commercial IGFBP-3 10 μg/mL, MD8S 1.5 μg/mL, 37° C. overnight; new band of 25 kDa
Protocol: (§1) The MD8S enzyme solution obtained in Example 8(1) was reacted with commercially available IGFBP-3 or IGFBP-5 (upstate biotechnology) in a 50 mmol/L tris-HCl(pH7.4) buffer containing 50 mmol/L NaCl, 2 mmol/L CaCl2, 20 μg/mL bovine serum albumin (BSA), and 0.1% CHAPS at 37° C. overnight. In this connection, concentrations of the MD8S protein and IGFBP-3 (or IGFBP-5) in the reaction solution were 1.5 μg/mL and 10 μg/mL, respectively.
(§2) Using an aliquot of the reaction solution, sodium dodecyl sulfate polyacrylamide gel electrophoresis (SDS-PAGE) was carried out, and then a transfer to a PVDF membrane and blocking was carried out. IGFBP-3 was detected using an anti-IGFBP-3 polyclonal antibody (R&D System) as the first antibody and a peroxidase-labeled rabbit anti-goat IgG polyclonal antibody (ZYMED) as the second antibody. IGFBP-5 was detected using an anti-IGFBP-5 polyclonal antibody (upstate biotechnology) as the first antibody and a peroxidase-labeled goat anti-rabbit IgG polyclonal antibody (MBL) as the second antibody.

IGFBP-5 = experiment: Activity of digesting IGFBP-5 by MD8S protein; format: biochemical, human; conditions: MD8S 1.5 μg/mL, 37° C. overnight
Protocol: as §1, §2
The MD8S enzyme solution obtained in Example 8(1) was reacted with recombinant IGFBP-5 obtained in Example 9(1) in a 50 mmol/L tris-HCl (pH7.4) buffer containing 50 mmol/L NaCl, 2 mmol/L CaCl2, 20 μg/mL bovine serum albumin (BSA), and 0.1% CHAPS at 37° C. overnight. […]

Molecule	IC50 (MD8S protein; MD8S 1.5 μg/mL, recombinant IGFBP-5 10 μg/mL, 37° C. overnight, western blot image analysis, read-out: intensity of the inhibition activity (IC50) of the activity of digesting IGFBP-5)	activity of digesting recombinant IGFBP by the MD8S protein in presence of compound (FIG. 3) (MD8S protein; electrophoresis, compound A 1 nmol/L to 10 μmol/L)	activity of digesting IGFBP-3 (IGFBP-3)	activity of digesting IGFBP-5 (IGFBP-5; commercial IGFBP-5 10 μg/mL, new bands 12 to 25 kDa)	activity of digesting recombinant IGFBP-5 (IGFBP-5; recombinant IGFBP-5-FLAG 10 μg/mL)
CCCOCC(C(=O)NC(Cc1ccc(OC)cc1)C(=O)NC)C(CSC)C(=O)O (stereo not drawn) [compound A, N^α-[(3-carboxy-4-methylthio-2-propoxymethyl)butyryl]-N,O-dimethylthyrosineamide]	3.3 µM	inhibited			
B1			exhibits an activity of digesting IGFBP-3	exhibits an activity of digesting IGFBP-3 and IGFBP-5	exhibits an activity of digesting IGFBP-5
